Test results published in paper PMC10016340.

What was measured:
Cofilin-1 (human) = Cofilin-1 (human) (UniProt P23528); assay: SPR
[1] = molecular target: Ubiquitin carboxyl-terminal hydrolase isozyme L1 (UCH-L1) (human) (UniProt P09936); assay: SPR
Chain of Ubiquitin carboxyl-terminal hydrolase isozyme L1 (UCH-L1) (human) (P09936 whole entry): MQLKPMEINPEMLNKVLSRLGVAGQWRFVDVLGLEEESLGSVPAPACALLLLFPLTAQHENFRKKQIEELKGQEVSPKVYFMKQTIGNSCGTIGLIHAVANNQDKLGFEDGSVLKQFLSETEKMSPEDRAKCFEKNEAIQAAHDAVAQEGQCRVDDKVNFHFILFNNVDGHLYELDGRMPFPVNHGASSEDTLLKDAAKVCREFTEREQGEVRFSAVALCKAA

Chain of Cofilin-1 (human) (P23528 whole entry): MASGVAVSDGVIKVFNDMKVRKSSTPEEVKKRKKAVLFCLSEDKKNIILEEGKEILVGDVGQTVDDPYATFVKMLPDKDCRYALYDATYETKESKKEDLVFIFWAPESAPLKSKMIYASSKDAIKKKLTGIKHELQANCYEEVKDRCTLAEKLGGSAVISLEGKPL

Work on “α-synuclein oligomers (αSOs) (from UniProt P37840 1-140) (complex)” yielded a Kd (Cofilin-1 (human)) of 0.29 µM and a Kd [1] of 0.6 µM.
